Laboratory results from patent US20140341931A1.

Experiments:
[1] = molecular target: recombinant sCD27 containing 6x his-Tag at the carboxyl terminus (human) (UniProt P26842); experiment: mock depletion on plate coated with control IgG, sCD27 ELISA of the supernatant
Myosin IIA (human) [2] = molecular target: Myosin IIA (human) (UniProt P35579); experiment: control (background) lane of the PolyHis pull-down, no bait peptides detected, mass spectrometry
[3] = molecular target: High mobility group protein B1 (human) (UniProt P09429); experiment: as above
Myosin IIA (human) [4] = molecular target: Myosin IIA (human) (UniProt P35579); experiment: PolyHis pull-down with sCD27-his as bait from lysate of stimulated PBMCs, SDS-PAGE, mass spectrometry
[5] = molecular target: High mobility group protein B1 (human) (UniProt P09429); experiment: as above

Myosin IIA (human), sequence (P35579 2-1960 limits assumed): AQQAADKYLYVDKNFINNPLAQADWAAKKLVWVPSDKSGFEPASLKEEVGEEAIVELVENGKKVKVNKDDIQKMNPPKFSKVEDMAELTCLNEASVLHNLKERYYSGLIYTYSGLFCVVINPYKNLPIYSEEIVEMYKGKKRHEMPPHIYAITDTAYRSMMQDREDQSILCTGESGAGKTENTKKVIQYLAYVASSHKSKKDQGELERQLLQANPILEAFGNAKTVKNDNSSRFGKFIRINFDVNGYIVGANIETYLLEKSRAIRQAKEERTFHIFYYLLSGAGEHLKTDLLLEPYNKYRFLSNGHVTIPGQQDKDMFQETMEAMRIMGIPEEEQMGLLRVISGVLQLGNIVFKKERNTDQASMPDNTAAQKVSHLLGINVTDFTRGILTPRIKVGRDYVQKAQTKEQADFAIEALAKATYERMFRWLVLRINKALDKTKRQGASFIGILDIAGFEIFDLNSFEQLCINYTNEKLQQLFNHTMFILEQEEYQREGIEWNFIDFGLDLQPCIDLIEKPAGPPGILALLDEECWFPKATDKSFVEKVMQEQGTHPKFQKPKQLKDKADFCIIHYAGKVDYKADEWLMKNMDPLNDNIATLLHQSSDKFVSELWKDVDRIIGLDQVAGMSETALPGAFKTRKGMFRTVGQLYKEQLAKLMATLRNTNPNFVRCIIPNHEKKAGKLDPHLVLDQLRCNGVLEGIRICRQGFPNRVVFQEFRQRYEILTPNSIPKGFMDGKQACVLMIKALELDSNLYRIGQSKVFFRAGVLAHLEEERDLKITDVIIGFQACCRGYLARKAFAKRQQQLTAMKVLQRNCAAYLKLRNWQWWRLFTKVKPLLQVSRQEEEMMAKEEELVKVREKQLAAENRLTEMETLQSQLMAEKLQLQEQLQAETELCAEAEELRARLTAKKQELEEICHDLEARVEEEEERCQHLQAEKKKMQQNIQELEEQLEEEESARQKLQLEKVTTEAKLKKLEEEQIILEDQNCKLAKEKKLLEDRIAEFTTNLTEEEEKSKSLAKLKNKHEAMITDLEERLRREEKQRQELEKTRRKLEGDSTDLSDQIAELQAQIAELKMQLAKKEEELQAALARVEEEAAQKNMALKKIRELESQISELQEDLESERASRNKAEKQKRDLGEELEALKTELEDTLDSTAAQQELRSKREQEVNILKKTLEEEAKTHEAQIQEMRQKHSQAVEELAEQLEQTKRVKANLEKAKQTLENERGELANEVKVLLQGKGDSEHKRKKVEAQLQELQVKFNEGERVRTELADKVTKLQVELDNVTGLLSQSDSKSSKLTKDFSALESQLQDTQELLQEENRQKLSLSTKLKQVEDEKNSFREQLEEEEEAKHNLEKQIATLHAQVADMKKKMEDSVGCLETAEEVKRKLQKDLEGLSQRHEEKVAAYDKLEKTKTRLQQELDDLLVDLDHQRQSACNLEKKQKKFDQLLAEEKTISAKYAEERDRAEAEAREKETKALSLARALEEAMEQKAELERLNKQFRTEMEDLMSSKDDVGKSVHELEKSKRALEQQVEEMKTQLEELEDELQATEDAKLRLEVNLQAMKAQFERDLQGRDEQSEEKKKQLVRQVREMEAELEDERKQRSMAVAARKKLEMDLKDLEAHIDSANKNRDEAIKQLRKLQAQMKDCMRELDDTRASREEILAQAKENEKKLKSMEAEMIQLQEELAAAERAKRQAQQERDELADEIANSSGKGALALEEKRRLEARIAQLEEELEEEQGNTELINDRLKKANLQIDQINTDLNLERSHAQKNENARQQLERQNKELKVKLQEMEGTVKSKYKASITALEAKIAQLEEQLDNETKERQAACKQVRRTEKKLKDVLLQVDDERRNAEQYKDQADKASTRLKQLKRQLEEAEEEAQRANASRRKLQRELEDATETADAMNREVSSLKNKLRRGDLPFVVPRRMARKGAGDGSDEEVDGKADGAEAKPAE
High mobility group protein B1 (human), sequence (P09429 whole entry): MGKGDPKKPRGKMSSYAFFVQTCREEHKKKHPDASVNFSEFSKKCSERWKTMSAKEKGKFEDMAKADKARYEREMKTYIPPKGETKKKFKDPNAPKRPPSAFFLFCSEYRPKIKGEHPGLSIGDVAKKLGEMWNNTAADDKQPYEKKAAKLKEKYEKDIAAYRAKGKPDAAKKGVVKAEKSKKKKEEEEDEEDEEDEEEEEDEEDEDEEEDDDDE

Substance	sCD27 value left after depletion [1] [ng/mL]	TPC (total peptide count) in Lane 4 (background) (Myosin IIA (human) [2]) [peptides]	TPC (total peptide count) in Lane 4 (background) [3] [peptides]	TPC (total peptide count) in Lane 2 (positive) (Myosin IIA (human) [4]) [peptides]	TPC (total peptide count) in Lane 2 (positive) [5] [peptides]
IgG control (R&D Systems Inc.) (antibody)	1.4				
recombinant sCD27 containing 6x his-Tag at the carboxyl terminus (from UniProt P26842 20-189) (receptor)		14	5	79	44
